Test results reported in article PMC6586995.

How the values were obtained:
Experiment in all cases: SPR
[1] = molecular target: T1, integrin α5β1 (soluble, SPR) (Homo sapiens, UniProt P08648;P05556 42-995;21-728)
[2] = molecular target: integrin αvβ3 (Homo sapiens, UniProt P06756;P05106 31-992;27-718)
[3] = molecular target: T1, integrin α5β1 (soluble, SPR); remark: listed apart in the source

T1 sequence (P08648 42-995, chain 1 of 2): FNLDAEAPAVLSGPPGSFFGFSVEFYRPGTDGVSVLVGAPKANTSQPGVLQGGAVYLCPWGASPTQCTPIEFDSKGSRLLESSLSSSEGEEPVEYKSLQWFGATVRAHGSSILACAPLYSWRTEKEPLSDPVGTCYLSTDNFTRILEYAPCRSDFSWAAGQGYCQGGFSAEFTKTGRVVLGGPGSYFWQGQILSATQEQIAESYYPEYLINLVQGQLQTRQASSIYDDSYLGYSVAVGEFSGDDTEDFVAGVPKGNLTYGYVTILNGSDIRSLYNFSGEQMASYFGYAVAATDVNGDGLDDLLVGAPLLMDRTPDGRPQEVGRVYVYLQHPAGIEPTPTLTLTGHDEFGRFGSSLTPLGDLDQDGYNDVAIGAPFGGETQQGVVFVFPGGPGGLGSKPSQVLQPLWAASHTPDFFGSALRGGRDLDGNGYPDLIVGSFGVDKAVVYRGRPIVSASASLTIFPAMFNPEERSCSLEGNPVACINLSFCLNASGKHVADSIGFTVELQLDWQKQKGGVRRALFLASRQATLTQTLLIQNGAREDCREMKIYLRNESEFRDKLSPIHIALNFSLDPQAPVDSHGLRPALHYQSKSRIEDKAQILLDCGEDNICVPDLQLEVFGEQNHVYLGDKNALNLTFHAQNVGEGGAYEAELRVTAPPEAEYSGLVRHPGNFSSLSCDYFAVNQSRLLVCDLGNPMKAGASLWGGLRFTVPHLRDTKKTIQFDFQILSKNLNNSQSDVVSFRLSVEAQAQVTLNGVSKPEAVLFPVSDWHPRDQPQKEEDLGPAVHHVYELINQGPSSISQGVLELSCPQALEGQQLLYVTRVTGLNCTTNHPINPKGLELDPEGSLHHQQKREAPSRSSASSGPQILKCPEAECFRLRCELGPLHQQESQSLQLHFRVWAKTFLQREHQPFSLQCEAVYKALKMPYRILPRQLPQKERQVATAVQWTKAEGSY
T1 sequence (P05556 21-728, chain 2 of 2): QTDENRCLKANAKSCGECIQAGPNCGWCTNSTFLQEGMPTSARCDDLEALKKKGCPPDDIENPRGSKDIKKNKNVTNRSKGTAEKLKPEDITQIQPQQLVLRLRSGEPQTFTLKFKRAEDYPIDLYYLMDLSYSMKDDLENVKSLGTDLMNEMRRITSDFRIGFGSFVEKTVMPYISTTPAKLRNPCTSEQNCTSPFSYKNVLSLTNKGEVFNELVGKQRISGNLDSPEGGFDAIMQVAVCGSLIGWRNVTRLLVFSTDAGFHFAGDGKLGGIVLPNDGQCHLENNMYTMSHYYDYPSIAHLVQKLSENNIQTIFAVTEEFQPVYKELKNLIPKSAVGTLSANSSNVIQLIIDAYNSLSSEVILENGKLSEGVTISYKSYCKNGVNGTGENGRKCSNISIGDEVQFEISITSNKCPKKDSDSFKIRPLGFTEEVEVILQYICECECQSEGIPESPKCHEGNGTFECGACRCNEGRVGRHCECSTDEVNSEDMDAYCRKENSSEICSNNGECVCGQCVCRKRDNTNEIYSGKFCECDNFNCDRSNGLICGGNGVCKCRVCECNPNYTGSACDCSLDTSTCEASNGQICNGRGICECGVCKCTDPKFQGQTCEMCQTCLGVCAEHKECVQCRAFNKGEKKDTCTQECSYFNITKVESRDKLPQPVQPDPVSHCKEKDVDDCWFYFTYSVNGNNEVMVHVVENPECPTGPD
Chain of integrin αvβ3 (P06756 31-992, chain 1 of 2): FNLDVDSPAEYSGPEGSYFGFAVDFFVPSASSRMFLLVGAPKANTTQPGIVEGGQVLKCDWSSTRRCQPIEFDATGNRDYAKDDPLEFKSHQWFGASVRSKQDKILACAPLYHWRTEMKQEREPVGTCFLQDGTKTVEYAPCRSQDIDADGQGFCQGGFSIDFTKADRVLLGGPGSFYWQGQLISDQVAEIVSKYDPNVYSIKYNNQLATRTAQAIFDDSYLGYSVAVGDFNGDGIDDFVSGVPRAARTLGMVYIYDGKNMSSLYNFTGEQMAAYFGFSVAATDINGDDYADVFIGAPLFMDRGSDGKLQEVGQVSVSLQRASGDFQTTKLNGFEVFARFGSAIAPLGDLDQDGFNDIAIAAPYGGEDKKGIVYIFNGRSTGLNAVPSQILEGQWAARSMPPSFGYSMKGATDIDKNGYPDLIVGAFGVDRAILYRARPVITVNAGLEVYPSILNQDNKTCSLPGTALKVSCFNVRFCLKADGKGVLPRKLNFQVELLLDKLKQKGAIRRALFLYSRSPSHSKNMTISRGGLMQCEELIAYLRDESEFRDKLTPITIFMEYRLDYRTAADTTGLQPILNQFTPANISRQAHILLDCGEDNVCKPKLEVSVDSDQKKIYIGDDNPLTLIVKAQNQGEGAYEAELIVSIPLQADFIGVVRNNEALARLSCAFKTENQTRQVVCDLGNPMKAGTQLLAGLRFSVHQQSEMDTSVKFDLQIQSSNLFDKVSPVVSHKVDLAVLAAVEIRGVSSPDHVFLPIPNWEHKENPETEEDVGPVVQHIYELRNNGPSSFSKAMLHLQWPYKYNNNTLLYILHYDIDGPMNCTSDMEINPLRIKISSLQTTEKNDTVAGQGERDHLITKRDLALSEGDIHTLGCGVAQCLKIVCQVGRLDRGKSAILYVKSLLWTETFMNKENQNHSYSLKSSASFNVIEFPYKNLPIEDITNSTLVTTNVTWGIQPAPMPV
Chain of integrin αvβ3 (P05106 27-718, chain 2 of 2): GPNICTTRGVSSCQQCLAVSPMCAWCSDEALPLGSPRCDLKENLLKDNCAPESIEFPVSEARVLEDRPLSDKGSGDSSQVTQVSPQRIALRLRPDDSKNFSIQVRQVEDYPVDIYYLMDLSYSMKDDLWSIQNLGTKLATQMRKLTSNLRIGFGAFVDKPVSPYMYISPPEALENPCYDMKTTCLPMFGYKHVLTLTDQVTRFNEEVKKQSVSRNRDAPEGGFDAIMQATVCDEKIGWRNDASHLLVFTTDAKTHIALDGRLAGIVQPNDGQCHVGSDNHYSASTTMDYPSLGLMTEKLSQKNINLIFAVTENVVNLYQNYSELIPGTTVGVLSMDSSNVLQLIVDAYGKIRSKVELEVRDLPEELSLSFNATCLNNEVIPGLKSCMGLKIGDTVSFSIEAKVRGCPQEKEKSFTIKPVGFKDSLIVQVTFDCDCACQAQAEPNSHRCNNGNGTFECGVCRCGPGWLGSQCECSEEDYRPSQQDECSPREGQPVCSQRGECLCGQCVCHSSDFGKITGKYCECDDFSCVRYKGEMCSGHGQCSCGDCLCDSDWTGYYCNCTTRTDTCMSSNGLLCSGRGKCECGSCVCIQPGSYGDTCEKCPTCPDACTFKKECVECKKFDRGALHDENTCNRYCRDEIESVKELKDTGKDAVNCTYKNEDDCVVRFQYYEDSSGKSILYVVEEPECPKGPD

Row | Binder | binding result [1] | binding result [2] | Kd [3] [nM]
1 | aptamer B03 (biotinylated, SPR) (structured_RNA, 2'-fluoro pyrimidines? (not stated for B03)) RNA: GGUUACCAGCCUUCACUGCGCCCAGUCACUGCACGAAUCAGUGAUGGCCGCACCACGGUCGGUCACAC | no binding |  | 
2 | aptamer H02-2'F (XNA, 2'-fluoro pyrimidines) RNA: GGUUACCAGCCUUCACUGCGGACGGACAGAGAGUGCAACCUGCCGUGCCGCACCACGGUCGGUCACAC |  | no binding | 72 ± 11
